In patent publication CN111484562A:

Target: 人CD22(hCD22)蛋白 (human) (UniProt P20273)
Experiment: phage ELISA, 0.5 ug/ml hCD22 coated, phage supernatant, anti-M13-HRP

Sequence of UniProt P20273 (P20273 20-687 limits assumed): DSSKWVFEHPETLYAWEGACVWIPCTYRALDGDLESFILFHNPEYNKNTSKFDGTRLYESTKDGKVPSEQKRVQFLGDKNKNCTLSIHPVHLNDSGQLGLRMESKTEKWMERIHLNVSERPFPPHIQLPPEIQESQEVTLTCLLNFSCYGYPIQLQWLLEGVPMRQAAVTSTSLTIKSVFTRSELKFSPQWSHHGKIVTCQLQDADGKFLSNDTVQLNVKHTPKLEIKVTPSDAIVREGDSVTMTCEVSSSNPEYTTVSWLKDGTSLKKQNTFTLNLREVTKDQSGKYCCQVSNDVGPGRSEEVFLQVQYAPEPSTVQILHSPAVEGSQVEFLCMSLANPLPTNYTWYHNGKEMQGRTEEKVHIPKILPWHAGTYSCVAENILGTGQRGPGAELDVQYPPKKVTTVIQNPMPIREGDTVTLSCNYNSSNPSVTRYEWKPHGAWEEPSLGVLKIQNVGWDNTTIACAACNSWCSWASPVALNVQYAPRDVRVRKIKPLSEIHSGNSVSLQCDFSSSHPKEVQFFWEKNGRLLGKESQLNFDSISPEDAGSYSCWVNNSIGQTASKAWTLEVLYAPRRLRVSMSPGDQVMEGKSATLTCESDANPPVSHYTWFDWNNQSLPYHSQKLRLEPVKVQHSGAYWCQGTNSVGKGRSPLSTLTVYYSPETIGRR

B1: CD22抗体 (scFv单链抗体, 抗CD22) (scFv)
scFv: DIVMTQSPSSLSASVGDRVTITCRASQSINNYLNWYQQKPGKAPKLLISAASSLQSGVPSRFSGSGSGTDFTLTISSLQPEDFATYYCQQSYTTPLTFGGGTKVEIRGSTSGSGKPGSGEGSTKGQVQLQQSGPGLVESSQILSLTCAISGDSVSSNSATWNWIRLSPSRGLEWLGRTYYRSTWYNDYPASVKGRIIIDPDTSKNQFSLLLSSVTPEDTAVYYCARELVPRGATIGFDYWGQGTLVTVSS
OD450: > 1.5 OD450
